The values that follow come from publication doi:10.1101/062877.

Assay in all cases: single-molecule TIRF microscopy of live cells
Assay [1] addresses DNA-CAR (DNA-based chimeric antigen receptor; HA-tagged non-fluorescent version, pHR-DNA-CAR-IRES-puro) (UniProt P42081).
Assay [2] shares this target. The source holds these as a separate data set.
For assay [3] the target is unchanged. This is another data set of the same source.

Read-outs that look alike come from different tables or passages of the source.

Sequence of ZAP70-GFP (P43403 whole entry): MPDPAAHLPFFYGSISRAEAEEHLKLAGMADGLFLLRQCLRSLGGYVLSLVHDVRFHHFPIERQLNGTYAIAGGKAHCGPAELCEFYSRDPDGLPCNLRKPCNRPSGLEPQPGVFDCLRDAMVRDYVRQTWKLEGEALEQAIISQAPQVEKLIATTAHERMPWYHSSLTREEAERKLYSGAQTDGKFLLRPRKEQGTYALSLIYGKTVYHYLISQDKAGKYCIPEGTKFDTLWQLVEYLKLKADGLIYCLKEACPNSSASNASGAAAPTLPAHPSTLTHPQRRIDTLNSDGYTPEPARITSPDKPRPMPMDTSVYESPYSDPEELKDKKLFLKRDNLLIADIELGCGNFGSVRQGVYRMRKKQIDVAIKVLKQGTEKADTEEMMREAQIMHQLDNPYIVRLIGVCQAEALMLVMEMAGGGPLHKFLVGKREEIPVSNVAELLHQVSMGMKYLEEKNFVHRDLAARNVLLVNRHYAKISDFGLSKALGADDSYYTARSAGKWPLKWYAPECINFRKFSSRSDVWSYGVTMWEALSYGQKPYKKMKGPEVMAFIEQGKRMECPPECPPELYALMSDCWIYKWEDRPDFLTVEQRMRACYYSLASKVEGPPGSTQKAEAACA

Regarding “ZAP70-GFP (from UniProt P43403 1-619) (enzyme)”, the percent of single bound ligand-receptors that recruit ZAP70-GFP in assay [1] amounted to 2.2%. Besides, in assay [2], the duration of ZAP70-GFP recruitment at a single ligated receptor is under 20 s, the half-life of the bound time on a single ligated receptor turned out to be 10 s, the percent of receptor-ligand clusters of 3 or more ligands that recruit ZAP70-GFP was determined as 83% and the percent of single bound ligand-receptors that recruit ZAP70-GFP is 6.3%. The percent of single bound receptors that recruit ZAP70-GFP in assay [2] was 20%. In assay [3], this substance returned a percent of receptor-ligand clusters of 3 or more ligands that recruit ZAP70-GFP of 53% and a percent of single bound ligands that recruit ZAP70-GFP of 2%.
